Measurements as given in US20030036108A1.

Experiments:
[1] = target: CD4 naturally expressed on Jurkat T cells (human) (UniProt P01730); assay: cell-based or functional assay
[2] = target: CXCR4 naturally expressed on Jurkat T cells (human) (UniProt P61073); assay: cell-based or functional assay
CXCR4 naturally expressed on Jurkat T cells (human), sequence (P61073 whole entry): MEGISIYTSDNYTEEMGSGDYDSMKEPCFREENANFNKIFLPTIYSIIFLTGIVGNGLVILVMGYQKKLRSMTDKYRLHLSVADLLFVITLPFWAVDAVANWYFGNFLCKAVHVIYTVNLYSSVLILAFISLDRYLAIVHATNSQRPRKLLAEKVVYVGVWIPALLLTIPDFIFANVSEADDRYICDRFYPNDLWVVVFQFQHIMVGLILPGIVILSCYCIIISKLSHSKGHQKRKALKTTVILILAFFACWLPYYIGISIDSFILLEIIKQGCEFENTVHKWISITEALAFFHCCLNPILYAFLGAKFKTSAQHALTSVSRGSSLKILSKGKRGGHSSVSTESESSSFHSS

**Q.** “gp143/HXB2, a carboxyl-terminus truncated form of the Env (gp160) of HIV-1 strain HXB2, expressed on CHO or 293T cells (from UniProt P04578 31-714)” was tested. Which fusion ratio (460 nm / 530 nm emission) of 293T cells expressing gp143/HXB2 with Jurkat cells [1] did it give?
**A.** 1.54

**Q.** And the fusion ratio (460 nm / 530 nm emission) of 293T cells expressing gp143/HXB2 with Jurkat cells [2]?
**A.** 1.54
